Test results reported in the supplement of paper PMC7125110.
± gives the standard error. For some assays here: Fewer inactive variants are shown than the library holds.

B1: glmS ribozyme (parent)
chain: AUAAAAGCGCCAGAACUACAGAAAUGUAGUUGACGAGGAGGAGGUUUAUCGAAUUUUCGGCGGAUGCCUCCAAA

Experiments:
Settings in all cases: with glucosamine-6-phosphate
glucosamine-6-phosphate [1] = variants of: B1; assay: kcat; higher = faster cleavage; RNA array
In short: (§1)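 Tiles bearing barcoded ribozyme variants, transcribed in situ by E. coli RNA polymerase on sequenced MiSeq chips, were imaged over ~14 h at 37 °C using a hybridised Cy3 probe. Glucosamine-6-phosphate was supplied at 40 μM to 10 mM in HEPES/KCl/Mg(OAc)2 buffer. kobs came from one- or two-exponential decay fits to normalised per-tile medians, and weighted Michaelis–Menten fits then provided kcat and KM.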

glucosamine-6-phosphate [2] = variants of: B1; assay: self-cleavage kobs at 2500 uM GlcN6P; higher = faster cleavage; RNA array
In short: as §1

glucosamine-6-phosphate [3] = variants of: B1; assay: self-cleavage kobs at 10000 uM GlcN6P; higher = faster cleavage; RNA array
In short: as §1

glucosamine-6-phosphate [4] = variants of: B1; assay: KM; higher = weaker cofactor use; RNA array
In short: as §1

glucosamine-6-phosphate [5] = variants of: B1; assay: self-cleavage kobs at 160 uM GlcN6P; higher = faster cleavage; RNA array
In short: as §1

glucosamine-6-phosphate [6] = variants of: B1; assay: self-cleavage kobs at 640 uM GlcN6P; higher = faster cleavage; RNA array
In short: as §1

glucosamine-6-phosphate [7] = variants of: B1; assay: self-cleavage kobs at 40 uM GlcN6P; higher = faster cleavage; RNA array
In short: as §1

Variant | kcat (glucosamine-6-phosphate [1]) [s⁻¹] | self-cleavage kobs at 2500 uM GlcN6P (glucosamine-6-phosphate [2]) [s⁻¹] | self-cleavage kobs at 10000 uM GlcN6P (glucosamine-6-phosphate [3]) [s⁻¹] | KM (glucosamine-6-phosphate [4]) [µM] | self-cleavage kobs at 160 uM GlcN6P (glucosamine-6-phosphate [5]) [s⁻¹] | self-cleavage kobs at 640 uM GlcN6P (glucosamine-6-phosphate [6]) [s⁻¹] | self-cleavage kobs at 40 uM GlcN6P (glucosamine-6-phosphate [7]) [s⁻¹]
AUAAAAGCGCCAGCACUACAGAAAUGUAGUUGACGAGGAGGAGGUUUCUCGAAUUUUCGGCGGAUGCCUCCAAA | 5.79e-05 ± 1.1e-05 | 4.95e-05 ± 1.2e-05 | 4.92e-05 ± 1.2e-05 | – | – | – | –
AUAAAAGCGCCAUAACUACAGAAAUGUAGUUGACGAGGAGGAGGUUUAUCGAAUUGUCGGCGGAUGCCUCCAAA | 0.000921 ± 0.00016 | 0.000372 ± 6.6e-05 | 0.000774 ± 9.3e-05 | 2720 ± 820 | 7.12e-05 ± 2e-05 | 0.000172 ± 2.5e-05 | –
AUAAAAGCGCCAGCAGUACAGAAAUGUAGUUGACGAGGAGGAGGUUUAUCGAAUUUUCGGCGGAUGCCUCCAAA | 8.6e-05 ± 5.5e-06 | 8.11e-05 ± 8.9e-06 | 7.9e-05 ± 6.9e-06 | 438 ± 180 | – | 4.86e-05 ± 1.2e-05 | –
AUAAAAGCGCCAGCUCUACAGAAAUGUAGUUGACGAGGAGGAGGUUUAUCGAAUUUUCGGCGGAUGCCUCCAAA | 0.000353 ± 2.4e-05 | 0.000148 ± 1.9e-05 | 0.000256 ± 3.6e-05 | 3640 ± 380 | – | 5.17e-05 ± 6.8e-06 | –
AUAAAAGCGCCAUAACUACAGAAAUGUAGUUGACGAGGAGGAGGUUUAUCGAAGUUUCGGCGGAUGCCUCCAAA | 0.00069 ± 0.00021 | 0.000363 ± 6.4e-05 | 0.000964 ± 0.00015 | – | 9.27e-05 ± 1.6e-05 | 0.000263 ± 6e-05 | 3.24e-05 ± 1.1e-05
AUAAAAGCGCCAGCACUACAGAAAUGUAGUUGACGAGGCGGAGGUUUAUCGAAUUUUCGGCGGAUGCCUCCAAA | 0.000549 ± 0.00015 | 0.000254 ± 3.3e-05 | 0.000346 ± 4.9e-05 | 4660 ± 2000 | – | 5.77e-05 ± 9.6e-06 | –
AUAAAAGCGCCAUAACUACAGAAAUGUAGUUGACGAGGAGGAGGUUUAUCGAAUUUUCGGCGGAGGCCUCCAAA | 0.000372 ± 2.8e-05 | 0.000136 ± 2.7e-05 | 0.000276 ± 3.5e-05 | 3750 ± 540 | – | 5.82e-05 ± 1.2e-05 | –
AUAAAAGCGCCAGCACUACAGAAAUGUAGUUGACGAGGAGGAGGUUUAUCGAAUUUUCGGCGGGUGCCUCCAAA | 0.00265 ± 0.00066 | 0.00221 ± 0.00047 | 0.00267 ± 0.00068 | 884 ± 370 | 0.000434 ± 0.0002 | 0.000733 ± 0.00024 | 0.000141 ± 3e-05
AUAAAAGCGCCAGCACUACAGAAAUGUAGUUGACGAGGAGGGGGUUUAUCGAAUUUUCGGCGGAUGCCUCCAAA | 0.0097 ± 0.0025 | 0.00494 ± 0.00075 | 0.00788 ± 0.0011 | 2690 ± 890 | 0.000475 ± 7.2e-05 | 0.00154 ± 0.00023 | 0.000181 ± 2e-05
AUAAAAGCGCCAUAACUACAGAAAUGUAGUUGACGAGGAGGAGGUUUAGCGAAUUUUCGGCGGAUGCCUCCAAA | 1.85e-05 ± 6.3e-06 | – | – | – | < 1e-05 | – | < 1e-05
AUAAAAGCGCCAGCACUACAGAAAUGUAGUUGACGAGGAGGAGGUUUAUCGGAUUUGCGGCGGAUGCCUCCAAA | 0.000174 ± 4.6e-05 | 8.49e-05 ± 2.9e-05 | 0.000182 ± 3.1e-05 | – | – | 8.13e-05 ± 1.9e-05 | –
AUAAAAGCGCCAGCACUACAGAAAUGUAGUUGACGAGGAGGAGGUUUAUCGUAUUUUCGGCGGAUGCCUCCAAA | 8.73e-05 ± 5e-06 | 5.13e-05 ± 1.4e-05 | 7.28e-05 ± 1e-05 | 1920 ± 430 | – | – | –
AUAAAAGCGCCAGCACUACAGAAAUGUAGUUGACGAGGAGGAGGUUUAUUGAAUUUUCGGCGGAUGCCUCCAAA | 1.4e-05 ± 6.4e-06 | – | – | – | – | – | –
AUAAAAGCGCCAGCACUACAGAAAUGUAGUUGACGAGGAGGAGGUUUAUAGAAUUUUCGGCGGAUGCCUCCAAA | < 1e-05 | – | – | – | – | – | –
AUAAAAGCGCCAUAACUACAGAAAUGUAGUUGACGAGGAGGAGGUUUAUCGAAUUAUCGGCGGAUGUCUCCAAA | 0.000254 ± 9.5e-05 | 0.000115 ± 3.1e-05 | 0.000167 ± 3.2e-05 | – | – | – | –
AUAAAAGCGCCAUAACUACAGAAAUGUAGGUGACGAGGAGGAGGUUUAUCGAAUUUUCGGCGGAUGCCUCCAAA | 0.000187 ± 3.9e-05 | 0.000105 ± 1.2e-05 | 0.000136 ± 2e-05 | 2660 ± 1200 | – | 2.49e-05 ± 9.4e-06 | –
AUAAAAGCGCCAUAACUACAGAAAUGUAGUUGACGAGGAGGAGGUAUAUCGAAUUUUCGGCGGAUGCCUCCAAA | 3.16e-05 ± 1.5e-06 | 2.81e-05 ± 1.2e-05 | 2.96e-05 ± 9.4e-06 | 479 ± 200 | – | – | –
